Data from the nanobody polyreactivity screen of Harvey et al. (2022).

Assay: yeast display, Sf9 membrane polyspecificity reagent, FACS + sequencing; frameworks hold sequencing errors
Outline: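 Nanobodies came from a synthetic yeast display library in Saccharomyces cerevisiae BJ5465, induced with galactose for 36–48 hours and stained for 1 hour at 4 °C with 10% biotinylated, detergent-solubilized Sf9 membrane reagent. Cells were enriched on streptavidin microbeads and then FACS-sorted, with low and high (top ~1%) gates set on anti-HA fluorescence for expression and streptavidin fluorescence for reagent binding. Each polyreactivity label reflects the gate a clone came from. Genes were amplified by colony PCR, sequenced by MiSeq 2 × 250 and filtered by CDR length.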

| Sequence | polyreactivity (PSR sort gate) |
| --- | --- |
| QVQLVESGGGLVQAGGSLRLICAASGRTFNINGMGWYRQAPGKERELVAAITTSGGSTYYADSVKGRFTISRDNAKNTVYLQMNSLKPEDTAVYYCAADVFSRKYLYGDYDYWGQGTQVTVSS | high polyreactivity |
| QVQLVESGGGLVQAGGSLRLICAASGRTFPGYGMGWYRQAPGKERELVAVITSNGGITYYADSVKGRFTISRDNAKNTVYLQMNSLKPEDTAVYYCAAYEIYNEFDSWGQGTQVTVSS | low polyreactivity |
| QVQLVESGGGLVQAGGSLRLICAASGRTFPRYTMGWYRQEPGNERELVAAISWRGGRTYYADSVKGRFTISLDNAKNTVYLLMNSLKPEDTAVYYCNAQKRDGSMGYWGQGTQVTVSS | high polyreactivity |
| QVQLVESGGGLVQAGGSLRLICAASGRTFPYNAMGWYRQAPGKEREFVAVISKGGGRTYYADSVKGRFTISRDNAKNTVYLQMNSLKPEDTAVYYCAKRIGLTFWGQGTQVTVSS | high polyreactivity |
| QVQLVESGGGLVQAGGSLRLICAASGRTFPYNTMGWYRQAPGKERELVAGISIRGSSTYYADSVKGRFTISRDNAKNTVYLQMNSLKPEDTAVYYCAKRYYGWYGNFDYWGQGTQVTVSS | high polyreactivity |
| QVQLVESGGGLVQAGGSLRLICAASGRTFRGNAKGCYRQAPGKERELVAAISGRGTNTYYADSVKGRFTISRDNAKNTVYLQMNSLKPEDTAVYYCAKVFYSYRDHYDYWGQGTQVTVSS | high polyreactivity |
| QVQLVESGGGLVQAGGSLRLICAASGRTFRGYAMGWYRQAPGKERELVAAISVTGSSTNYADSVKGRFTISRDNAKNTVYLQMNSLKPEDTAVYYCNAKRVRYSLSYDYWGQGTQVTVSS | high polyreactivity |
| QVQLVESGGGLVQAGGSLRLICAASGRTFRYNAMGWYRQAPGKERELVAAITLGASRTYYADSVKGRFTISRDNAKNTVYLQMNSLKPEDTAVYYCNAVGRRNVDSSLNDYWGQGTQVTVSS | low polyreactivity |
| QVQLVESGGGLVQAGGSLRLICAASGRTFTGYTMGWYRQAPGKEREFVAAISSNGGRTYYADSVKGRFTISRDNAKNTVYLQMNSLKPEDTAVYYCAAPYTFWGQGTQVTVSS | high polyreactivity |
| QVQLVESGGGLVQAGGSLRLICAASGRTFTRYAMGWYRQAPGKERELVAAITSGDSTYYADSVKGRFTISRDNAKNTVYLQMNSLKPEDTAVYYCAARTSYGYWYRRRYYYWGQGTQVTVSS | high polyreactivity |
| QVQLVESGGGLVQAGGSLRLICAASGRTFVPNVMGWYRQAPGKERELVAAITSGGSTYYADSVKGRFTISRDNAKNTVYLQMNSLKPEDTAVYYCAKRTSWKYGYWGQGTQVTVSS | high polyreactivity |
| QVQLVESGGGLVQAGGSLRLICAASGRTFYPSVMGWYRQAPGKERELVARIRWSGSSTYYADSVKGRFTISRDNAKNTVYLQMNSLKPEDTAVYYCNARPSWYVLGSSVHSGMGYWGQGTQVTVSS | high polyreactivity |
| QVQLVESGGGLVQAGGSLRLICAASGRTFYWNAMGWYRQAPGKERELVAAISDGGGSTYYADSVKGRFTISRDNAKNTVYLQMNSLKPEDTAVYYCNTPDNQDKPYPGYDYWGQGTQVTVSS | low polyreactivity |
| QVQLVESGGGLVQAGGSLRLICAASGRTIYIYTMGWYRQAPGKERELVASISWNGGRTYYADSVKGRFTISRDNAKNTVYLQMNSLKPEDTAVYYCAAQYGVYDYLGQGTQVTVSS | low polyreactivity |
| QVQLVESGGGLVQAGGSLRLICAASGSIFDYYDMGWYRQAPGKERELVAANNWSGGITYYADSVKGRFTISRDYAKNTVYLQMNSLKPEDTEVYFCAADWYQWVYSSSITSFDYWGQGTQVTVSS | low polyreactivity |
| QVQLVESGGGLVQAGGSLRLICAASGSIFFSYAMGSYRQAPGKERELVAGINRSGGSTYADSVKGRFTISRDNAKNTVNLQMTSLKPEDTAVYYCAAKYYSERSRYHYWGQGTQVTVSS | low polyreactivity |
| QVQLVESGGGLVQAGGSLRLICAASGSIFGINAMGWYRQAPGKERELVAAITWSGTSTYYADSVKGRFTISRDNAKNTDYLQMNSMKPEDTAVYYCAARVGRGYRTYGYWGQGTQVTVSS | high polyreactivity |
| QVQLVESGGGLVQAGGSLRLICAASGSIFGYYAMGWYRQAPGKERELVAGITNSGDTNYADSVKGRFTISRDNAKNTVYLQMNSLKPEDTAVYYCAADGSYQYYYWGQGTQVTVSS | low polyreactivity |
| QVQLVESGGGLVQAGGSLRLICAASGSIFINNGMGWYRQAPGKERELVAAINGGDGSTYYADSVKGRFTISRDNAKNTVYLQMNSLKPEDTAVYYCAADQVTYSVEYDYWGQGTQVTVSS | low polyreactivity |
| QVQLVESGGGLVQAGGSLRLICAASGSIFRPNAMGWYRQAPGKERELVAAITWSGDSTYYADSVKGRFTISRDNAKNTVYLQMNSLKPEDTAVYYCAADFTYQGSSANDYWGQGTQVTVSS | low polyreactivity |
| QVQLVESGGGLVQAGGSLRLICAASGSIFRYAMGWYRQAPGKERELVAAINRSGGSTYYADSVKGRFTISRDNAKNTVYLQMNSLKTEDTEVYYCAKDLRYGVNYRLVNRYGYWGQGTQVTVSS | high polyreactivity |
| QVQLVESGGGLVQAGGSLRLICAASGSIFRYYAMGWYRQAHGKERELLAAISYSGGSTYYADSVKGRFTISRDNAKNTVYLQMNSLKPEDTAVYYCAKGRHTTRASIAFNYWGQGTQVTVSS | high polyreactivity |

| Sequence | polyreactivity (PSR sort gate) |
| --- | --- |
| QVQLVESGGGLVQAGGSLRLICAASGSIFRYYAMGWYRQAPGKERELVATISWSGGGTYYADSVKGRFTISRHNAKNTVYLQMNSLKPEDTAVYYCAADYGEQYVYWGQGTQVTVSS | low polyreactivity |
| QVQLVESGGGLVQAGGSLRLICAASGSIFSRNAMGWYRQAPGKERELVASISWSSDITNYADSGKGRFTISRDNAKNTVYLEMNSLKAEDTAVYYCNVDGLLGERFSWGYDYWRQGTQVTVSS | low polyreactivity |
| QVQLVESGGGLVQAGGSLRLICAASGSIFSSYAMGWYRQAPGKERELVAAITSGGSTYYADSVKGRFTISRDNAKNTVYLQMNSLKPEDTAVYYCAARQVRTSKLHMGYWGQGTQVTVSS | low polyreactivity |
| QVQLVESGGGLVQAGGSLRLICAASGSIFSWYTMGWYRQAPGKERELVARITTSGGTTRYADSVKGRFTISRDNAKHTAFIQMNSLKPVDTAVYYCAADRSPYWRGYVRYNYWGQGTQVTVSS | high polyreactivity |
| QVQLVESGGGLVQAGGSLRLICAASGSIFVTNGMGWYRQAPGKERELVAAIRWSGDSTYYADSVKGRFTISRDNGKNTVFLLMKSLKPEDTAVYYCAAESFRYIRLNYKYGDYYWGQGTQVTVSS | high polyreactivity |
| QVQLVESGGGLVQAGGSLRLICAASGSIFVYNAMGWYRQAPGKERELVAAISQRGGSTYYADSVKGRFTISRDNAKNTVYLQMNSLKPEDTAVYYCAAGPGDSGDDYWGQGTQVTVSS | low polyreactivity |
| QVQLVESGGGLVQAGGSLRLICAASGSIFYIYAMGWYRQAPGKERELVAVIDNSGSTNYADSVKGRFTISRDNAKNTVYLLINSLKPEDTADYYCLKLWLWASYLYDYWGQGTQVTVSS | low polyreactivity |
| QVQLVESGGGLVQAGGSLRLICAASGSILSINGMGWYRQAPGKERELVATIDGSDGSTFYADSVKGRFTISRDNAKNTVYLQMNSLKPEDTAVYYCAAENFWQTKEYDYWGQGTQVTVSS | low polyreactivity |
| QVQLVESGGGLVQAGGSLRLICAASGSSFSYNPMVWYRQAPGKERELVAAIRTSGGRTYYADSVKGRFTISRDNAKNTVYLQMNSLKPEDTAVYYCAKRWVYSYGYEYWGQGTQVTVSS | high polyreactivity |
| QVQLVESGGGLVQAGGSLRLICAASGSTCVDNAMGGYRPAPGKERELVADISSVGSTYYADYVKGRFTISRDNAKNTVYLQMNTLIPEDTAVYYCNRAGGYRTTFYSWGQGTQVTVSS | high polyreactivity |
| QVQLVESGGGLVQAGGSLRLICAASGSTFAYNTMGWYRPAPGKERELVAAISWRGTRTYYADSVKGRFTISRDNAKNTVYLQMNSLKPEDTAVYYCATKYGISYDYWGLGTQVTVSS | high polyreactivity |
| QVQLVESGGGLVQAGGSLRLICAASGSTFCRYAMGRDRQARGKEMELVAAISTRGGSTRYADSVKGRFTISRDYAKYTVYLLINRLKPEDTGVYYCDALGQGRTSATSFVDYEYWGQGTQVTVSS | high polyreactivity |
| QVQLVESGGGLVQAGGSLRLICAASGSTFDINAMGWYRQAPGKERELVAAITWRSGRTYYADSVKGRFTISRDNAKNTVYLQMNSLKPEDTAVYYCAADDTSYYIYSYDYWGQGTQVTVSS | low polyreactivity |
| QVQLVESGGGLVQAGGSLRLICAASGSTFGEYAMGWYRQAHGKERELVAVITSDDNTYYADSVKGRFTISRDNAKNTVYLQMNSLKPEDTAVYYCAARGYVLARSQQWRREYYWGQGTQVTVSS | high polyreactivity |
| QVQLVESGGGLVQAGGSLRLICAASGSTFGGNVMGWYRQAPGKERELVAAINWSGGRTYYADSVKGRFTISRDNAKNTVYLQMNSLKPEDTAVYYCAADGGQNGMNYWGQGTQVTVSS | high polyreactivity |
| QVQLVESGGGLVQAGGSLRLICAASGSTFGIYAMGWFRQAPGKERELVAAISWRGGRTYYADSVKGSFTISRDNAKNNVYLQRNSLKPEDTAVYNCSADYRYLWEGYDYWGQGTQVTVSS | low polyreactivity |
| QVQLVESGGGLVQAGGSLRLICAASGSTFGRYAMGWYRQAPGKERELVAGITYGSTYYADSVKGRFTISRDNAKNTVYLQMHSLKPEDTAVYYCAADLSYTSVHGYRSDTLMDYWRQGTQVTVSS | low polyreactivity |
| QVQLVESGGGLVQAGGSLRLICAASGSTFGYYTMGWYRQAPGKERELVAAITWSGGSTYYADSVKGRFTISRDYANNTVYLQMNSLKPEDTAVYYCAADDYWTPFGYWGQGTQVTVLS | low polyreactivity |
| QVQLVESGGGLVQAGGSLRLICAASGSTFIVYAMGWSRQAPGKEREFVAAISSGDSTKYADSVKGRFTISRDNAKNTVYLQMNSLKPEDTAVYYCAKYGQRSIHSPSLVGYYYWGQGTQVTVSS | low polyreactivity |
| QVQLVESGGGLVQAGGSLRLICAASGSTFKRYAMGWYRPAPGNERELVAAISSTGGSTFYADSVKGRFTISRDIAKYTVYLQMNSLKREDTAVYYCKKYRATNSARDYWGQGTQVTVSS | high polyreactivity |
| QVQLVESGGGLVQAGGSLRLICAASGSTFLVNTMGWYRQAPGKERELVAAISYSGGRTYYADSVKGRFTISRDNAKNTVYFQMNSLKPEDTAVYYCAARYYRTRREGVDYWGQGTQVTVSS | high polyreactivity |
